Laboratory results published in US6627739.
[ ]: non-standard residue; d: D form. Sta = CC(C)C[C@H](N)[C@@H](O)CC(=O)O

Experiments:
β-secretase 46-452 = target: T1, β-secretase 46-452 (human, UniProt P56817 46-452); test: binding to peptide-Sepharose affinity matrix
T1 construct: C-terminally truncated form lacking the transmembrane region
Method: The same fractions run under non-reducing conditions (FIG. 6B) provide evidence for disulfide cross-linked oligomers. When the anion exchange pool fractions 18–21 (see FIG. 6B) were treated with dithiothreitol (DTT) and re-chromatographed on a Mini Q column, then subjected to SDS-PAGE under non-reducing conditions, a single band running at about 70 kilodaltons was observed.
All manipulations were carried out at room temperature. 12.5 ml of 80% slurry of NHS-Sepharose (i.e. 10 ml packed volume; Pharmnacia, Piscataway, N.J.) was poured into a Bio-Rad EconoColumn (BioRad, Richmond, Calif.) and washed with 165 ml of ice-cold 1.0 mM HCl. When the bed was fully drained, the bottom of the column was closed off, and 5.0 ml of 7.0 mg/ml P10-P4'sta(D→V) peptide (dissolved in 0.1 M HEPES, pH 8.0) was added. The column was capped and incubated with rotation for 24 hours. After incubation, the column was allowed to drain, then washed with 8 ml of 1.0 M ethanolamine, pH 8.2. An additional 10 ml of the ethanolamine solution was added, and the column was again capped and incubated overnight with rotation. […]

[1] = target: T2, recombinant full-length human β-secretase (1-501) expressed from pCEK clone 27 / pCFβA2 in 293T or Cos A2 … (human, UniProt P56817 46-501); test: affinity chromatography on peptide-Sepharose, extracts of transfected 293T and COS A2 cells
T2 construct: From 293T cells the N-terminus was mainly residue 46, with minor forms at 22 and 63; From Cos A2 cells it was 46 and 58; also called p501 β-secretase; full length clone 27
Method: The cell pellet was resuspended by homogenizing for 30 seconds using a handheld homogenizer (0.5 ml/pellet of approximately […] in extraction buffer consisting of 20 mM TRIS buffer, pH 7.5, 2 mM EDTA, 0.2% Triton X-100, plus protease inhibitors: 5 µg/ml E-64, 10 µg/ml pepstatin, 1 mM PMSF), centrifuged as maximum speed in a microfuge (40 minutes at 4 degrees C.). Pellets were suspended in original volume of extraction buffer, then stirred at 1 hour at 4 degrees C. with rotation, and centrifuted again in a microfuge at maximum speed for 40 minutes. The resulting supernatant was saved as the "extract." The extract was then diluted with 20 mM sodium acetate, pH 5.0,2 mM EDTA and 0.2% Triton X-100 (SP buffer A), and 5M NaCl was added to a final concentration of 60 mM NaCl. The pH of the solution was then adjusted to pH 5.0 with glacial acetic acid diluted 1:10 in water. Aliquots were saved ("SP load"). The SP load was passed through a 1 ml SP HiTrap column which was pre-washed with 5 ml SP buffer A, 5 ml SP buffer B (SP buffer A with 1 M NaCl) and 10 ml SP buffer A. An additional 2 ml of 5% SP buffer B was passed through the column to displace any remaining sample from the column. The pH of the SP flow-through was adjusted to pH 4.5 with 10× diluted acetic acid. This flow-through was then applied to a P10-P4'staD→V-Sepharose Affinity column, as described below. […]

T2 sequence (P56817 46-501 limits assumed): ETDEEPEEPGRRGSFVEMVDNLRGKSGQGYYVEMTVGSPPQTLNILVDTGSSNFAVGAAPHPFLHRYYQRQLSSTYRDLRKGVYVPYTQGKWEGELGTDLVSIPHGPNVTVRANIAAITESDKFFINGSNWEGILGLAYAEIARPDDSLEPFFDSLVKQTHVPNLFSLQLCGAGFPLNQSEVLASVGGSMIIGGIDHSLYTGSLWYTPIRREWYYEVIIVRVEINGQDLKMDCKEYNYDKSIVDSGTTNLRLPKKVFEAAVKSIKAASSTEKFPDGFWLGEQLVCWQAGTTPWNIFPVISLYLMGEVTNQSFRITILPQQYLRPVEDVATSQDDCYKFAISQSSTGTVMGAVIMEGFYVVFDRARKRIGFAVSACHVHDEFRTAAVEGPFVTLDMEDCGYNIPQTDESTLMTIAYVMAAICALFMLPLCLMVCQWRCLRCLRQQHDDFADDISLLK
T1 sequence (P56817 46-452 limits assumed): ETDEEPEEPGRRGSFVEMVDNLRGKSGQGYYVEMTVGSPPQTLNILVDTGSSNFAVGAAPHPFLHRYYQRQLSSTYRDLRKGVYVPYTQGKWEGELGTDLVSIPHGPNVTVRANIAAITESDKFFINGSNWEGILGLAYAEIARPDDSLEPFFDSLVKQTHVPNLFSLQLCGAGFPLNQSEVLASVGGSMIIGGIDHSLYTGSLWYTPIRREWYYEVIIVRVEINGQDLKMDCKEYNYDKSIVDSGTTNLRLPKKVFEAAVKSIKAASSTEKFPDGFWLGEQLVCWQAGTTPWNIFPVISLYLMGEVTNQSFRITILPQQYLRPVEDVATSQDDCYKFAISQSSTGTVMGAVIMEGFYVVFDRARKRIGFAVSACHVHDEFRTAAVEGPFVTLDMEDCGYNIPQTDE

binding result (β-secretase 46-452): binds
binding result [1]: binds
Binder: H-KTEEISEVN[Sta]VAEF-OH (also called P10-P4′(statine)D→V) [P10-P4′staD→V (NH2-KTEEISEVN[sta]VAEF-CO2H)]
